In article PMC5286519, “Two strategies to engineer flexible loops for improved enzyme thermostability” (Scientific Reports, 2017):
Residue numbers refer to the chain shown, from its start. Names and notes keep the numbering of the source.

B1: Escherichia coli transketolase (TK); wild-type E. coli TK (Escherichia coli K-12) (protein)
chain: MSSRKELANAIRALSMDAVQKAKSGHPGAPMGMADIAEVLWRDFLKHNPQNPSWADRDRFVLSNGHGSMLIYSLLHLTGYDLPMEELKNFRQLHSKTPGHPEVGYTAGVETTTGPLGQGIANAVGMAIAEKTLAAQFNRPGHDIVDHYTYAFMGDGCMMEGISHEVCSLAGTLKLGKLIAFYDDNGISIDGHVEGWFTDDTAMRFEAYGWHVIRDIDGHDAASIKRAVEEARAVTDKPSLLMCKTIIGFGSPNKAGTHDSHGAPLGDAEIALTREQLGWKYAPFEIPSEIYAQWDAKEAGQAKESAWNEKFAAYAKAYPQEAAEFTRRMKGEMPSDFDAKAKEFIAKLQANPAKIASRKASQNAIEAFGPLLPEFLGGSADLAPSNLTLWSGSKAINEDAAGNYIHYGVREFGMTAIANGISLHGGFLPYTSTFLMFVEYARNAVRMAALMKQRQVMVYTHDSIGLGEDGPTHQPVEQVASLRVTPNMSTWRPCDQVESAVAWKYGVERQDGPTALILSRQNLAQQERTEEQLANIARGGYVLKDCAGQPELIFIATGSEVELAVAAYEKLTAEGVKARVVSMPSTDAFDKQDAAYRESVLPKAVTARVAVEAGIADYWYKYVGLNGAIVGMTTFGESAPAELLFEEFGFTVDNVVAKAKELL
notes: full-length tktA product, N-terminal His6-tag (kept, no cleavage told), expressed in E. coli XL10-Gold from plasmid pQR791, Ni-NTA purified, dialysed into ThDP and MgCl2 (holo form), homodimer
B2: Escherichia coli transketolase (TK); wild-type E. coli TK (Escherichia coli K-12; D143K) (protein)
chain: B1 chain with D143K
notes: as for B1
B3: Escherichia coli transketolase (TK); wild-type E. coli TK (Escherichia coli K-12; I189H) (protein)
chain: B1 chain with I189H
notes: as for B1
B4: Escherichia coli transketolase (TK); wild-type E. coli TK (Escherichia coli K-12; H192P) (protein)
chain: B1 chain with H192P
notes: as for B1
B5: Escherichia coli transketolase (TK); wild-type E. coli TK (Escherichia coli K-12; A282P) (protein)
chain: B1 chain with A282P
notes: as for B1
B6: Escherichia coli transketolase (TK); wild-type E. coli TK (Escherichia coli K-12; A282P/H192P) (protein)
chain: B1 chain with H192P, A282P
notes: as for B1

Each protein was assayed on O=CCO (assay: HPLC of erythrulose formed, Michaelis-Menten fit). Settings: 50 mM Li-HPA (saturating co-substrate), 4-80 mM GA, 2.4 mM ThDP, 9 mM MgCl2, 50 mM Tris-HCl pH 7.0, 22 °C.
Format: biochemical, Escherichia coli
Description: HPLC of erythrulose formed, Michaelis-Menten fit on Escherichia coli transketolase (TK); wild-type E. coli TK

Row | Protein | Km | kcat | kcat/Km
1 | B1 | 20.5 (1.3) mM | 62.3 s⁻¹ | 3040 M⁻¹ s⁻¹
2 | B2 | 16.1 (1.2) mM | 48.1 s⁻¹ | 2990 M⁻¹ s⁻¹
3 | B3 | 18.0 (0.8) mM |  | 
4 | B4 | 18.0 (1.2) mM | 65.5 s⁻¹ | 3640 M⁻¹ s⁻¹
5 | B5 | 17.6 (2.1) mM | 45.5 s⁻¹ | 2580 M⁻¹ s⁻¹
6 | B6 | 23.3 (1.4) mM | 81.2 s⁻¹ | 3480 M⁻¹ s⁻¹
